The record followed here is PMC11497405.

Test in all cases: SEC; size exclusion chromatography coupled online to ICP-sfMS (HPLC-ICP-MS) with diode array detection, metal-free HPLC system; apparent MW from a calibration curve; purified MTs with their bound metals
In general terms: SEC sorts molecules by how far they enter the pores of the column.

Experiment [1] concerns the target native (non-tagged) Brassica napus metallothionein BnMT3a (Brassica napus).
In experiment [2] the target is native (non-tagged) Brassica napus metallothionein BnMT3b (Brassica napus).
Experiment [3] concerns the target native (non-tagged) Brassica napus metallothionein BnMT2 (Brassica napus).

A word on the stoichiometry N: it is a count of units in the complex or per binding partner.

For “native (non-tagged) Brassica napus metallothionein BnMT3a (natural protein)”, in experiment [1], the stoichiometry N was found to be 2.

As for “native (non-tagged) Brassica napus metallothionein BnMT3b (natural protein)”, the stoichiometry N in experiment [2] worked out at 2.

With “native (non-tagged) Brassica napus metallothionein BnMT2 (natural protein)”, the stoichiometry N in experiment [3] is 2.
